What was measured:
Human VPAC2 Receptor [1] = molecular target: T1, Human VPAC2 Receptor (Homo sapiens, UniProt P41587); test: Alpha screen cAMP potency at human VPAC2 receptor; assay type: cell-based; conditions: cAMP generation; read-out: Human VPAC2 Receptor: Alphascreen (EC50; nM)
T1 sequence (P41587 24-438): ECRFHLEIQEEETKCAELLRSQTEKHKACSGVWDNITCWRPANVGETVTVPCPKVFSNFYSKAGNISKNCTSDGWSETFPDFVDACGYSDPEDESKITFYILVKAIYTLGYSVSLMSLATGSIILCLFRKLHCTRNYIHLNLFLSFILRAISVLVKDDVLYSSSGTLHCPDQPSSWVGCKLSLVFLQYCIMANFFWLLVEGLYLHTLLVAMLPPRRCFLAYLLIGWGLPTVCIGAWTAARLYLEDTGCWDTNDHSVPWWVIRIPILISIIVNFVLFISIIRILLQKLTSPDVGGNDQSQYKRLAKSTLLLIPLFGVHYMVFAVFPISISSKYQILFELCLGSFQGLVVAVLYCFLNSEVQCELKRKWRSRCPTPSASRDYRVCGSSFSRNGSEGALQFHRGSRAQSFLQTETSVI
Procedure: Alpha screen: Cells are washed in the culture flask once with PBS. Then, the cells are rinsed with enzyme free dissociation buffer. The dissociated cells are removed. The cells are then spun down and washed in stimulation buffer. For each data point, 50,000 cells suspended in stimulation buffer are used. To this buffer, Alpha screen acceptor beads are added along with the stimuli. This mixture is incubated for 60 minutes. Lysis buffer and Alpha screen donor beads are added and are incubated for 60 to 120 minutes. The Alpha screen signal (indicative of intracellular cAMP levels) is read in a suitable instrument (e.g. AlphaQuest from Perkin-Elmer). Steps including Alpha screen donor and acceptor beads are performed in reduced light. The EC50 for cAMP generation is calculated from the raw signal or is based on absolute cAMP levels as determined by a standard curve performed on each plate.
The tested peptide concentrations are: 10000, 1000, 100, 10, 3, 1, 0.1, 0.01, 0.003, 0.001, 0.0001 and 0.00001 nM.

Human VPAC2 Receptor [2] = molecular target: T1, Human VPAC2 Receptor; test: Filter binding assay, 125I-labeled VIP, membranes of stable VPAC2 cell line; conditions: 125I-labeled VIP tracer
Procedure: For this assay, the solutions and equipment include:
Presoak solution: 0.5% Polyethyleneamine in Aqua dest
Buffer for flushing filter plates: 25 mM HEPES pH 7.4
Blocking buffer: 25 mM HEPES pH 7.4; 0.2% protease free BSA
Assay buffer: 25 mM HEPES pH 7.4; 0.5% protease free BSA
Dilution and assay plate: PS-Microplate, U form
Filtration Plate Multiscreen FB Opaque Plate; […] Type B Glasfiber filter
In order to prepare the filter plates, the presoak solution is aspirated by vacuum filtration. The plates are flushed twice with 200 μL flush buffer. 200 μL blocking buffer is added to the filter plate. The filter plate is then incubated with 200 μL presoak solution for 1 hour at room temperature.
The assay plate is filled with 25 μL assay buffer, 25 μL membranes (2.5 μg) suspended in assay buffer, 25 μL agonist in assay buffer, and 25 μL tracer (about 40000 cpm) in assay buffer. The filled plate is incubated for 1 hour with shaking.
The transfer from assay plate to filter plate is conducted. The blocking buffer is aspirated by vacuum filtration and washed two times with flush buffer. 90 μL is transferred from the assay plate to the filter plate. The 90 μL transferred from assay plate is aspirated and washed three times with 200 μL flush buffer. The plastic support is removed. It is dried for 1 hour at 60° C. 30 μL Microscint is added. The count is performed.

Rat VPAC1 Receptor = molecular target: T2, Rat VPAC1 Receptor (Rattus norvegicus, UniProt P30083); test: DiscoveRx cAMP potency, CHO-PO cells transiently transfected with rat VPAC1 receptor; assay type: cell-based; conditions: cAMP generation
T2 construct: expressed in transfected cells; host or cells: CHO-PO (transient, Lipofectamine)
T2 sequence (P30083 31-459): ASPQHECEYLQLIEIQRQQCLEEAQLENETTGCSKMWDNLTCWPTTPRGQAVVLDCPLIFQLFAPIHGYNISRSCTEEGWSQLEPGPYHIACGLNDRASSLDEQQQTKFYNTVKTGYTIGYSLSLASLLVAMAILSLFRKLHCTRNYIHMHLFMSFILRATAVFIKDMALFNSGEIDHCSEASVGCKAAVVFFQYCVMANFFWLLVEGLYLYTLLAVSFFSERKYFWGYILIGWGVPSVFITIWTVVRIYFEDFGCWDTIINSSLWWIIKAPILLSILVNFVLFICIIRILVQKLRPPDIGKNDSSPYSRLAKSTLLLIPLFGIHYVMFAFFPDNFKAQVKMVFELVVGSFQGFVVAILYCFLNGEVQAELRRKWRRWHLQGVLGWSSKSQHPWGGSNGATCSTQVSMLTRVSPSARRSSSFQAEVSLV
Procedure: (§1) DiscoveRx: CHO-PO cells are transiently transfected with rat VPAC1 or VPAC2 receptor DNA using commercially available transfection reagents (Lipofectamine from Invitrogen). The cells are seeded at a density of 10,000/well in a 96-well plate and are allowed to grow for 3 days in […] culture medium At day 3, the assay is performed.
(§2) On the day of the experiment, the medium is removed. Also, the cells are washed twice. The cells are incubated in assay buffer plus IBMX for 15 minutes at room temperature. Afterwards, the stimuli are added and are dissolved in assay buffer. The stimuli are present for 30 minutes. Then, the assay buffer is gently removed. The cell lysis reagent of the DiscoveRx cAMP kit is added. Thereafter, the standard protocol for developing the cAMP signal as described by the manufacturer is used (DiscoveRx Inc., USA). EC50 values for cAMP generation are calculated from the raw signal or are based on absolute cAMP levels as determined by a standard curve performed on each plate.
(§3) Results for each agonist are the mean of two independent runs. Rat VPAC1 and VPAC2 results are only generated using the DiscoveRx assay.

Rat VPAC2 Receptor = molecular target: T3, Rat VPAC2 Receptor (Rattus norvegicus, UniProt P35000); test: DiscoveRx cAMP potency, CHO-PO cells transiently transfected with rat VPAC2 receptor; assay type: cell-based; conditions: cAMP generation
T3 construct: expressed in transfected cells; host or cells: CHO-PO (transient, Lipofectamine)
T3 sequence (P35000 23-437): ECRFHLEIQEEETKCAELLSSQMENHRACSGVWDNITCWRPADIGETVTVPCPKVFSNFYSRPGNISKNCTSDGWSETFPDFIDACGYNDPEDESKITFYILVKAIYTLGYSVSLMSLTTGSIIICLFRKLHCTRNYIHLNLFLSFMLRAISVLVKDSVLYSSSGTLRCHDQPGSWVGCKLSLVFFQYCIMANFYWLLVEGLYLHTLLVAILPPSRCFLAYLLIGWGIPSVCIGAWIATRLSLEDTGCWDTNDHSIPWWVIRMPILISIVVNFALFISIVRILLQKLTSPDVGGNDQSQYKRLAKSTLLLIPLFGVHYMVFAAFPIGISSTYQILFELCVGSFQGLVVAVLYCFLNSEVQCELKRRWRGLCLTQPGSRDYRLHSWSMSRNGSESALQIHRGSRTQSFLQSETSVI
Procedure: as §1, §2, §3

“C6-HSDAVFTEK(CO(CH2)2SPEG40K)Y(OMe)TOrnLRAibQVAAAibOrnYLQSIOrnOrnGGPSSGAPPPS-NH2 (HSDAVFTEXYTXLRXQVAAXXYLQSIXXGGPSSGAPPPS; C6 acyl; PEG40K; non-natural residues; amide; Synthetic sequence PEGylated VPAC2 receptor peptide agonist) [Agonist P451]” showed an EC50 (Human VPAC2 Receptor [1]) of 68.6 nM and an IC50 (Human VPAC2 Receptor [2]) of 596 nM.
“C6-HSDAVFTEQY(OMe)TOrnLRAibQC(PEG40K)AAbuAibOrnY(OMe)LQAibIOrnOrnGGPSSGAPPPS-NH2 (HSDAVFTEQYTXLRXQCAXXXYLQXIXXGGPSSGAPPPS; C6 acyl, non-natural residues, PEG40K, C-terminal amide; Synthetic sequence PEGylated VPAC2 receptor agonist) [Agonist P578]” gave an EC50 (Rat VPAC1 Receptor) of 269 nM, an EC50 (Rat VPAC2 Receptor) of 306 nM and an EC50 (Human VPAC2 Receptor [1]) of 205 nM.
“C6-HSDAVFTEQY(OMe)TOrnLRAibQC(PEG40K)AAbuAibOrnY(OMe)LQSIOrnOrnGGPSSGAPPPS-NH2 (HSDAVFTEQYTXLRXQCAXXXYLQSIXXGGPSSGAPPPS; C6 acyl, non-natural residues, PEG40K, C-terminal amide; Synthetic sequence PEGylated VPAC2 receptor agonist) [Agonist P586]” showed an EC50 (Rat VPAC1 Receptor) of 502 nM, an EC50 (Rat VPAC2 Receptor) of 187 nM and an EC50 (Human VPAC2 Receptor [1]) of 122 nM.
For “C6-HSDAVFTEQY(OMe)TOrnLRAibQK(WPEG40K)AAAibOrnYLQSIOrnOrnGGPSSGAPPPS-NH2 (HSDAVFTEQYTXLRXQXAAXXYLQSIXXGGPSSGAPPPS; C6 acyl, PEG40K on Lys, C-terminal amide; Synthetic sequence PEGylated VPAC2 receptor agonist) [Agonist P533]”, the IC50 (Human VPAC2 Receptor [2]) was 959 nM.
For “C6-HSDAVFTEQY(OMe)TOrnLRAibQLAAbUAibOrnY(OMe)LQAibIOrnC(PEG40K)OrnGGPSSGAPPPS-NH2 (HSDAVFTEQYTXLRXQLAXXXYLQXIXCXGGPSSGAPPPS; C6 acyl, non-natural residues, PEG40K, C-terminal amide; Synthetic sequence PEGylated VPAC2 receptor agonist) [Agonist P576]”, the EC50 (Rat VPAC1 Receptor) was 461 nM, the EC50 (Rat VPAC2 Receptor) was 67.4 nM and the EC50 (Human VPAC2 Receptor [1]) was 55 nM.
With “C6-HSDAVFTEQY(OMe)TOrnLRAibQLAAbuAibOrnY(OMe)LQSIOrnC(PEG20K)OrnGGPSSGAPPPC(PEG20K)-NH2 (HSDAVFTEQYTXLRXQLAXXXYLQSIXCXGGPSSGAPPPC; C6 acyl, non-natural residues, two PEG20K, C-terminal amide; Synthetic sequence PEGylated VPAC2 receptor agonist) [Agonist P588]” the EC50 (Rat VPAC1 Receptor) was 406 nM, the EC50 (Rat VPAC2 Receptor) was 311 nM and the EC50 (Human VPAC2 Receptor [1]) was 54 nM.
Work on “C6-HSDAVFTEQY(OMe)TOrnLRAibQLAAbuAibOrnY(OMe)LQSIOrnC(PEG40K)OrnGGPSSGAPPPS-NH2 (HSDAVFTEQYTXLRXQLAXXXYLQSIXCXGGPSSGAPPPS; C6 acyl, non-natural residues, PEG40K, C-terminal amide; Synthetic sequence PEGylated VPAC2 receptor agonist) [Agonist P584]” yielded an EC50 (Rat VPAC1 Receptor) of 188 nM, an EC50 (Rat VPAC2 Receptor) of 67.2 nM and an EC50 (Human VPAC2 Receptor [1]) of 51.2 nM.
“C6-HSDAVFTEQY(OMe)TOrnLRAibQVAAAibOrnYAibQSIOrnOrnGGPSSGAPPPC(PEG40K)-NH2 (HSDAVFTEQYTXLRXQVAAXXYXQSIXXGGPSSGAPPPC; C6 acyl, PEG40K on Cys, C-terminal amide; Synthetic sequence PEGylated VPAC2 receptor agonist) [Agonist P507]” was tested, and the EC50 (Rat VPAC1 Receptor) was > 1000 nM, the EC50 (Rat VPAC2 Receptor) was 94.9 nM and the EC50 (Human VPAC2 Receptor [1]) was 27.1 nM.
